From patent publication US20210095021A1 (MacroGenics, published 2021)

B1: anti-CD3 × anti-HIV gp120 bispecific diabody (anti-HIV gp120 antibody A32 and humanized anti-CD3 Antibody 2 binding domains) (bispecific antibody)
chain 1: QSALTQPPSASGSPGQSVTISCTGTSSDVGGYNYVSWYQHHPGKAPKLIISEVNNRPSGVPDRFSGSKSGNTASLTVSGLQAEDEAEYYCSSYTDIHNFVFGGGTKLTVLGGGSGGGGEVQLVESGGGLVQPGGSLRLSCAASGFTFSTYAMNWVRQAPGKGLEWVGRIRSKYNNYATYYADSVKGRFTISRDDSKNSLYLQMNSLKTEDTAVYYCVRHGNFGNSYVSWFAYWGQGTLVTVSSGGCGGGEVAALEKEVAALEKEVAALEKEVAALEK
chain 2: QAVVTQEPSLTVSPGGTVTLTCRSSTGAVTTSNYANWVQQKPGQAPRGLIGGTNKRAPWTPARFSGSLLGGKAALTITGAQAEDEADYYCALWYSNLWVFGGGTKLTVLGGGGSGGGGQVQLQESGPGLVKPSQTLSLSCTVSGGSSSSGAHYWSWIRQYPGKGLEWIGYIHYSGNTYYNPSLKSRITISQHTSENQFSLKLNSVTVADTAVYYCARGTRLRTLRNAFDIWGQGTLVTVSSGGCGGGKVAALKEKVAALKEKVAALKEKVAALKE
B2: anti-CD3 × anti-HIV env bispecific diabody (anti-HIV env antibody 7B2 and humanized anti-CD3 Antibody 2 binding domains) (bispecific antibody)
chain 1: DIVMTQSPDSLAVSPGERATIHCKSSQTLLYSSNNRHSIAWYQQRPGQPPKLLLYWASMRLSGVPDRFSGSGSGTDFTLTINNLQAEDVAIYYCHQYSSHPPTFGHGTRVEIKGGGSGGGGEVQLVESGGGLVQPGGSLRLSCAASGFTFSTYAMNWVRQAPGKGLEWVGRIRSKYNNYATYYADSVKGRFTISRDDSKNSLYLQMNSLKTEDTAVYYCVRHGNFGNSYVSWFAYWGQGTLVTVSSGGCGGGEVAALEKEVAALEKEVAALEKEVAALEK
chain 2: QAVVTQEPSLTVSPGGTVTLTCRSSTGAVTTSNYANWVQQKPGQAPRGLIGGTNKRAPWTPARFSGSLLGGKAALTITGAQAEDEADYYCALWYSNLWVFGGGTKLTVLGGGGSGGGGQVQLVQSGGGVFKPGGSLRLSCEASGFTFTEYYMTWVRQAPGKGLEWLAYISKNGEYSKYSPSSNGRFTISRDNAKNSVFLQLDRLSADDTAVYYCARADGLTYFSELLQYIFDLWGQGARVTVSSGGCGGGKVAALKEKVAALKEKVAALKEKVAALKE

Key:
[1] = target: HIV gp140 (CM244, subtype AE, R5-tropic) expressed by HEK 293 D371 cells (HIV (CM244, subtype AE)); assay: cell-based or functional assay
[2] = target: HIV gp160 (HxB2) expressed by tetracycline-induced Jurkat 522 FY cells (HIV (HxB2), UniProt P04578 33-856); assay: cell-based or functional assay

Binder	EC50 (ng/mL) of CD8-mediated cytotoxicity, pan T cells, 24 h [1] [ng/mL]	EC50 (ng/mL) of CD8-mediated cytotoxicity, pan T cells, 24 h [2] [ng/mL]
B1	0.024	0.75
B2	0.006	0.49
